Experimental data as given in patent US20030143191A1 (published 2003).

Biological target: T1, CCR5 (G-protein coupled chemokine receptor) on human PBMC (human, UniProt P51681 1-352)
T1 construct: whole, on cells; The cells were primary PBMC, not transfectants, so the receptor is assigned through the CCR5 agonist MIP-1β; also called G-protein Chemokine Receptor CCR5
Experiment: 125I-MIP-1β competition binding on human PBMC cultured 2 days; labelled competitor 0.17 nM 125I-MIP-1β; cells preincubated with supernatant 45 min at 37 °C, then hot ligand 60 min at RT; cell pellet collected by density centrifugation through oil; readout cpm
Experimental: Human PBMC were purified from whole blood and cultured for 2 days. […] After 60 minutes, cell bound ¹²⁵I-MIP-1 was separated from unbound ¹²⁵I-MIP-1, and the radioactivity determined.
PBMCs were grown, purified, and suspended in calcium buffer as described above in Example 49.

T1 sequence (P51681 whole entry): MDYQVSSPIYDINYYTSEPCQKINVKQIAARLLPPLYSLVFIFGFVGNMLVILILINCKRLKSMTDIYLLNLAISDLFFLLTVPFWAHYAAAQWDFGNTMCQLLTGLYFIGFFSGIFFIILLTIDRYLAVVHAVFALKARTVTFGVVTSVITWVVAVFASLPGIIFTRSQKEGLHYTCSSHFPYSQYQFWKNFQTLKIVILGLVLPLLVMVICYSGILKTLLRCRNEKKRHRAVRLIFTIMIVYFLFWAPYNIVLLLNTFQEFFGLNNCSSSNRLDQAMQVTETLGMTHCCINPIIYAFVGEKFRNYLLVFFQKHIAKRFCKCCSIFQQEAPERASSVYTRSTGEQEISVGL

B1: Ckb1 construct 1832 (pC4:MPIFsp.CKB1(G28-N93)), secreted product ck-beta-1 G28-N93 (ligand)
chain: GPYHPSECCFTYTTYKIPRQRIMDYYETNSQCSKPGIVFITKRGHSVCTNPSDKWVQDYIKDMKEN
notes: Non-fusion Ckb1, expressed in mammalian cells from pC4
B1: binds.
